# Measured values reported in patent US20240166747A1.
# Numbering of substitutions follows the chain as printed.
# B1: 42Y073-86F08-22 (antibody, V domains shown)
# VH: QVQLVQSGAEVKKPGASVKVSCKASGYTFDSYAMHWVRQAPGQGLEWMGGIIPIFGTAWYAQKFQGRVTITADESTSTAYMELSSLRSEDTAVYYCARGAGYYGDKDPMDVWGQGTTVTVSS
# VL: DIQLTQSPSSLSASVGDRVTITCRASQSISSYLNWYQQKPGKAPKLLIYAASSLQSGVPSRFSGSGSGTDFTLTISSLQPEDFATYYCQQVLHTITFGGGTKVEIK
# B2: 42Y073-1A01-85 (antibody, V domains shown)
# VH: QVQLVQSGAEVKKPGASVKVSCKASGYTFTSYPMHWVRQAPGQGLEWMGIINPSGGFTSYAQKFQGRVTMTRDTSTSTVYMELSSLRSEDTAVYYCARETAYYTTKGNWFDPWGQGTLVTVSA
# VL: DIQMTQSPSSLSASVGDRVTITCRASQSISSYLNWYQQKPGKAPKLLIYAASSLQSGVPSRFSGSGSGTDFTLTISSLQPEDFATYYCQQSLYPPRTFGGGTKVEIK
# B3: 42Y073-1A01-191 (antibody, V domains shown)
# VH: B2 VH with S31K, P33R, S54Q, F57S
# VL: B2 VL
# B4: 42Y073-1A01-103 (antibody, V domains shown)
# VH: B2 VH with S31A, P33Q, S54A, F57W, A123S
# VL: B2 VL
# B5: 42Y073-86F04-23 (antibody, V domains shown)
# VH: QVQLVQSGAEVKKPGSSVKVSCKASGGTFSGYPISWVRQAPGQGLEWMGGIIPIMGTARYAQKFQGRVTITADESTSTAYMELSSLRSEDTAVYYCARLLGESGMDVWGQGTTVTVSS
# VL: B2 VL with S91P, L92Y, Y93F, P94S, R96P
# B6: 42Y073-86F04-18 (antibody, V domains shown)
# VH: B5 VH with G31S, Y32R, P33A
# VL: B2 VL with S91P, L92Y, Y93F, P94S, R96P
# B7: 42Y073-1A01-126 (antibody, V domains shown)
# VH: B2 VH with S31R, P33N, I50W, S54A, F57S
# VL: B2 VL
# B8: 42Y073-1A01-97 (antibody, V domains shown)
# VH: B2 VH with S31R, Y32A, P33A, S54A, F57Y, A123S
# VL: B2 VL
# B9: 42Y073-86F04-6 (antibody, V domains shown)
# VH: B5 VH with Y32H, P33A, M55F, T57R
# VL: B2 VL with S91P, L92Y, Y93F, P94S, R96P
# B10: 42Y073-86F04-4 (antibody, V domains shown)
# VH: B5 VH with S30E, G31S, Y32E, P33A, M55F, T57R
# VL: B2 VL with S91P, L92Y, Y93F, P94S, R96P
# B11: 42Y073-86F04-3 (antibody, V domains shown)
# VH: B5 VH with G31Y, Y32N, P33A
# VL: B2 VL with S91P, L92Y, Y93F, P94S, R96P
# B12: 42Y073-1A01-100 (antibody, V domains shown)
# VH: B2 VH with S31T, P33R, F57L, S59Q, A123S
# VL: B2 VL
# B13: 42Y073-86F08-3 (antibody, V domains shown)
# VH: B1 VH with A16S, Y27G, D30V, S31N, M34I, H35S, I54A, F55L, W59N
# VL: B1 VL
# B14: 42Y073-86F08-47 (antibody, V domains shown)
# VH: B1 VH with A16S, Y27G, D30S, S31Q, M34I, G50V, T57K, W59N
# VL: B1 VL
# B15: 42Y073-86F08-8 (antibody, V domains shown)
# VH: B1 VH with A16S, Y27G, D30W, S31L, M34I, H35S, I54Q, F55L, W59N
# VL: B1 VL
# B16: 42Y073-86F08-16 (antibody, V domains shown)
# VH: B1 VH with A16S, Y27G, D30N, S31E, M34I, H35S, I52V, I54V, W59K
# VL: B1 VL
# B17: 42Y073-86F08-17 (antibody, V domains shown)
# VH: B1 VH with A16S, Y27G, D30R, S31E, M34I, H35S, I54V, W59N
# VL: B1 VL
# B18: 42Y073-86F08-4 (antibody, V domains shown)
# VH: B1 VH with A16S, Y27G, D30S, S31E, M34I, G50N, W59G
# VL: B1 VL
# B19: 42Y073-86F04-5 (antibody, V domains shown)
# VH: B5 VH with G31S, Y32H, P33A, M55F, T57R, A58G, R59K
# VL: B2 VL with S91P, L92Y, Y93F, P94S, R96P
# Target: native human CD96 on primary human T cells and NK cells (human) (UniProt P40200)
# Test: flow cytometry, primary human CD3+ T cells
row,Binder,EC50
1,B1,0.1 nM

# Target: human CD96v2 expressed on cells (human) (UniProt P40200)
# Test: flow cytometry, CHO cells expressing human CD96v2
row,Binder,EC50
1,B2,0.47 nM
2,B3,0.01 nM
3,B4,0.02 nM
4,B5,0.06 nM
5,B6,0.07 nM
6,B7,0.02 nM
7,B8,0.77 nM
8,B9,0.06 nM
9,B10,0.04 nM
10,B11,0.04 nM
11,B12,0.02 nM
12,B13,0.04 nM
13,B14,0.05 nM
14,B15,0.17 nM
15,B16,0.03 nM
16,B1,0.03 nM
17,B17,0.1 nM
18,B18,0.04 nM

# Target: human CD96v2 expressed on cells (human) (UniProt P40200)
# Test: competition flow cytometry, inhibition of CD155-Fc-AF647 binding to CHO cells expressing human CD96v2
row,Binder,IC50
1,B2,0.03 nM
2,B3,0.03 nM
3,B4,0.03 nM
4,B5,0.76 nM
5,B6,0.59 nM
6,B19,0.38 nM
7,B7,0.1 nM
8,B8,0.03 nM
9,B9,0.25 nM
10,B10,0.18 nM
11,B11,0.31 nM
12,B12,0.06 nM
13,B13,0.26 nM
14,B14,0.17 nM
15,B15,0.93 nM
16,B16,0.78 nM
17,B1,0.41 nM
18,B17,0.52 nM
19,B18,0.38 nM
